In patent US20240124607A1 (Merck Sharp & Dohme, published 2024):

T1: Human CEACAM6 (human, UniProt P40199 35-320, limits assumed)
T1 sequence (looked up): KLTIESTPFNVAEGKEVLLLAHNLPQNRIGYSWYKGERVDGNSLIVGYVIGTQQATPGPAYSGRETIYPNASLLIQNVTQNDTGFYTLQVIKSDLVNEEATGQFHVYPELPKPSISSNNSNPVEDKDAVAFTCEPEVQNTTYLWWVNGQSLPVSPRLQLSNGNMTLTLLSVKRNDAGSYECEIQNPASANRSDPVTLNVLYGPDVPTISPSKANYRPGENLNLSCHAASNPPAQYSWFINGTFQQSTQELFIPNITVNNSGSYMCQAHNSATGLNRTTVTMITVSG

T2: human CEACAM6 on Ba/F3 cells (human, UniProt P40199 35-320)
T2 construct: whole, on cells
T2 sequence (looked up): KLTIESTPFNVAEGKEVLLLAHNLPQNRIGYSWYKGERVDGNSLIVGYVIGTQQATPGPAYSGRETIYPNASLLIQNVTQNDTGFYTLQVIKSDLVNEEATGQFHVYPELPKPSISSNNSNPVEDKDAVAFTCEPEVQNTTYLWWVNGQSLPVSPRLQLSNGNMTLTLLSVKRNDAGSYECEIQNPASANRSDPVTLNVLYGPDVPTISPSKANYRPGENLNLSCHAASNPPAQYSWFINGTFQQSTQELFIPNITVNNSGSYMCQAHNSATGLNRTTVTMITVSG

T3: Cyno NKG2D-mFc (cynomolgus monkey, UniProt P61252 78-216, limits assumed)
T3 construct: also called cynomolgus NKG2D fused to a mouse Fc
T3 sequence (looked up): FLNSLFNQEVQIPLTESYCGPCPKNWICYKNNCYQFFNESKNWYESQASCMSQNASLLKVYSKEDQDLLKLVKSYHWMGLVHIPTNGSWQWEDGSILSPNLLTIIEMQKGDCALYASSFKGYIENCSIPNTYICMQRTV

T4: soluble mouse Fc-human NKG2D dimer (human, UniProt P26718 78-216, limits assumed)
T4 construct: also called NKG2D-mFc; human NKG2D fused to a mouse Fc
T4 sequence (looked up): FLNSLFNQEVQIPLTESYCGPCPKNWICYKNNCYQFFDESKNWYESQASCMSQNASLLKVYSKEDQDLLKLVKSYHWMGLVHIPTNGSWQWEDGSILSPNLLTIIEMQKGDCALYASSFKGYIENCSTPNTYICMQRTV

T5: human CEACAM5 on cells (human, UniProt P06731 35-685)
T5 construct: tumour cell lines with endogenous CEACAM5, or B16F10 engineered to express hCEACAM5; also called CEACAM5 on MKN-45, HPAF-II, SK-CO-1, LoVo, BxPC-3, Kato-III, LS-174T, ZR-75-30; hCEACAM5-B16F10
T5 sequence: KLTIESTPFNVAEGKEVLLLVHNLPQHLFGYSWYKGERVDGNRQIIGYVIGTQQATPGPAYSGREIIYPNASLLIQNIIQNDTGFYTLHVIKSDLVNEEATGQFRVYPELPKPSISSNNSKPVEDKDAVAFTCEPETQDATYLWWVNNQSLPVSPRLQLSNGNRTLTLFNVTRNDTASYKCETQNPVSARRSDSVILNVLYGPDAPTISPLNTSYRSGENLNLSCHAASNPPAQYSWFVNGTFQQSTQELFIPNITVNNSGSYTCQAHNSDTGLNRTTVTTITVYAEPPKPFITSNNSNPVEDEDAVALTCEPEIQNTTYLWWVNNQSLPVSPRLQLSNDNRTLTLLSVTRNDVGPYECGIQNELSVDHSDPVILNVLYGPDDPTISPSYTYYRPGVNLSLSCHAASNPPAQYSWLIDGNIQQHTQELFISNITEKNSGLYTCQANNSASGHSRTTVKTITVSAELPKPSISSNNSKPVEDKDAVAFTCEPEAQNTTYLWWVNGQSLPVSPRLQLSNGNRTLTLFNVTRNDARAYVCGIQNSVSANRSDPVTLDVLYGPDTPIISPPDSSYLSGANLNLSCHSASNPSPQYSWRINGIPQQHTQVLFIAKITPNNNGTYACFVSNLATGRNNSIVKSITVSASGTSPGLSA


Tests used:
Human CEACAM6 = target: T1, Human CEACAM6; experiment: SPR, 37C, pH 7.4
Experimental: To determine the affinity and cross-reactivity of CEACAM5 TriNKET molecules, AB0411, AB0466, or AB0621 TriNKETs were captured using an anti-human Fc capture antibody (Cytiva, #BR100839) immobilized onto a Biacore CM5 standard surface sensor chip following manufacturer instructions. Human or cynomolgus CEACAM5 were titrated over captured AB0411, AB0466, and AB0621 as 2-fold serial dilutions starting from 300 nM. Association was monitored for 300 sec and dissociation was monitored for 600 sec. The assay was run at 37° C. at pH 7.4 and 6.0. The surface of the CM5 chip was regenerated with 10 mM glycine pH 1.5 for 20 sec at 100 μL/min.
Binding to human and cynomolgus CEACAM1, 6, and 8 was assessed by SPR using the same protocol as for CEACAM5 but using up to 600 and 1200 nM for titration of each protein. There were no detectable binding signals at these concentrations for AB0621. In contrast, reproducible weak binding signals were detected for AB0411 and AB0466, but these two TriNKETs also bound to different epitope(s) on the N-terminus of CEACAM5. Typical weak binding sensorgrams for AB0411 and AB0466 against human CEACAM1 and 6 indicated weak but notable signals compared to AB0621. […]

[1] = target: T2, human CEACAM6 on Ba/F3 cells; experiment: flow cytometry on Ba/F3 cells expressing human CEACAM6, fold over background (FOB), 5-fold dilutions from 1600 nM
Experimental: To examine the binding specificity of the TriNKETs to CEACAM5 compared to other CEACAM family members, Ba/F3 cells were engineered to express one of human CEACAM1, CEACAM6, CEACAM8, or cynomolgus CEACAM5. CEACAM5 TriNKETs were evaluated by flow cytometry starting at 1600 nM followed by 7 5-fold dilutions.

Cyno NKG2D-mFc = target: T3, Cyno NKG2D-mFc; experiment: SPR, NKG2D-mFc captured, 37C, pH 7.4
Experimental: (§1) Binding to NKG2D was assessed by SPR using a mouse Fc capture kit (Cytiva, #BR100838) immobilized onto a CM5 chip. Human and cynomolgus NKG2D fused to a mouse Fc were captured and AB0411, AB0466, or AB0621 was titrated from 600 nM.

[2] = target: T4, soluble mouse Fc-human NKG2D dimer; experiment: SPR, NKG2D-mFc captured, 37C, pH 7.4
Experimental: as §1

[3] = target: T6, human CD16A (FcγRIIIA) V158 (human, UniProt P08637 17-208, limits assumed, biotinylated in the assay of Table 21); experiment: SPR, biotin-CD16A on SA chip, 25C, pH 7.4
T6 construct: also called CD16A (V158/V176)
T6 sequence (P08637 17-208 F176V limits assumed): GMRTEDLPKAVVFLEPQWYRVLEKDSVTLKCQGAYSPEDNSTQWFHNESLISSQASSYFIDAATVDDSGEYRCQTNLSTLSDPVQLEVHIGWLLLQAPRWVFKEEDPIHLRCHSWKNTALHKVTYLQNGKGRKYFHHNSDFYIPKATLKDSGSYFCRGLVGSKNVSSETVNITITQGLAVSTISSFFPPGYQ
Experimental: Binding to human and cynomolgus CD16A was assessed using biotinylated CD16A captured on a streptavidin (SA) sensor chip (Cytiva, #BR100531). AB0411, AB0466, or AB0621 was titrated from 1500 nM at 25° C. at 30 μL/min for 150 sec association followed by 300 sec dissociation. The surface of the chip was regenerated with 2 mM sodium hydroxide for 5 sec at 30 μL/min. Running buffer was HBS-EP+. […] The V158 isoform bound ˜2- to 3-fold tighter than the F158 isoform as expected.

human CEACAM5 on cells = target: T5, human CEACAM5 on cells; experiment: flow cytometry, BxPC-3 cells

Row | binding result [1] | Kd (Cyno NKG2D-mFc) [nM] | koff (Cyno NKG2D-mFc) [s⁻¹] | kon (Cyno NKG2D-mFc) [M⁻¹ s⁻¹] | Kd [2] [nM] | koff [2] [s⁻¹] | kon [2] [M⁻¹ s⁻¹] | Kd [3] [nM] | koff [3] [s⁻¹] | kon [3] [M⁻¹ s⁻¹] | EC50 (human CEACAM5 on cells) [nM] | Max FOB (human CEACAM5 on cells) [fold over background] | Binder | binding result (Human CEACAM6)
1 | no binding (tested: 1600 nM) | 750 | 0.18 | 230000 | 680 | 0.16 | 240000 | 260 | 0.078 | 300000 |  |  | AB0466 F3' CEACAM5 TriNKET (bispecific antibody, human IgG1, kappa) not shown heavy: EVQLVESGGGLVKPGGSLRLSCAASGFTFSSYSMNWVRQAPGKGLEWVSSISSSSSYIYYADSVKGRFTISRDNAKNSLYLQMNSLRAEDTAVYYCARGAPIGAAAGWFDPWGQGTLVTVSSASTKGPSVFPLAPSSKSTSGGTAALGCLVKDYFPEPVTVSWNSGALTSGVHTFPAVLQSSGLYSLSSVVTVPSSSLGTQTYICNVNHKPSNTKVDKKVEPKSCDKTHTCPPCPAPELLGGPSVFLFPPKPKDTLMISRTPEVTCVVVDVSHEDPEVKFNWYVDGVEVHNAKTKPREEQYNSTYRVVSVLTVLHQDWLNGKEYKCKVSNKALPAPIEKTISKAKGQPREPQVCTLPPSRDELTENQVSLTCLVKGFYPSDIAVEWESNGQPENNYKTTPPVLDSDGSFFLYSWLTVDKSRWQQGNVFSCSVMHEALHNHYTQKSLSLSPG light: DIQMTQSPSSVSASVGDRVTITCRASQGISSWLAWYQQKPGKAPKLLIYAASSLQSGVPSRFSGSGSGTDFTLTISSLQPEDFATYYCQQGVSFPRTFGGGTKVEIKRTVAAPSVFIFPPSDEQLKSGTASVVCLLNNFYPREAKVQWKVDNALQSGNSQESVTEQDSKDSTYSLSSTLTLSKADYEKHKVYACEVTHQGLSSPVTKSFNRGEC | no binding (tested: up to 600 and 1200 nM)
2 |  | 590 | 0.15 | 260000 | 490 | 0.12 | 250000 | 120 | 0.029 | 230000 | 4.28 | 19 | AB0411 F3' CEACAM5 TriNKET (bispecific antibody, human IgG1, kappa) DIQLTQSPATLSVSPGERATLSCRASQSVSSSYLAWYQQKPGQAPRLLIYGASSRATGIPDRFSGSGSGTDFTLTISRLEPEDFAVYYCQQYNNWPLTFGCGTKVEIKGGGGSGGGGSGGGGSGGGGSQVQLVQSGGGLVQPGGSLRLSCAASGFTFTSYAMSWVRQAPGKCLEWVSAISGTGDSTFYADSVKGRFTFSRDNSKNTLYLQMNSLRAEDTAVYYCAKDLGWLQYGLFDYWGQGTLVTVSSGSDKTHTCPPCPAPELLGGPSVFLFPPKPKDTLMISRTPEVTCVVVDVSHEDPEVKFNWYVDGVEVHNAKTKPREEQYNSTYRVVSVLTVLHQDWLNGKEYKCKVSNKALPAPIEKTISKAKGQPREPRVYTLPPCRDELTKNQVSLTCLVKGFYPSDIAVEWESNGQPENNYKTTPPVLVSDGSFTLYSKLTVDKSRWQQGNVFSCSVMHEALHNHYTQKSLSLSPG heavy: EVQLVESGGGLVKPGGSLRLSCAASGFTFSSYSMNWVRQAPGKGLEWVSSISSSSSYIYYADSVKGRFTISRDNAKNSLYLQMNSLRAEDTAVYYCARGAPIGAAAGWFDPWGQGTLVTVSSASTKGPSVFPLAPSSKSTSGGTAALGCLVKDYFPEPVTVSWNSGALTSGVHTFPAVLQSSGLYSLSSVVTVPSSSLGTQTYICNVNHKPSNTKVDKKVEPKSCDKTHTCPPCPAPELLGGPSVFLFPPKPKDTLMISRTPEVTCVVVDVSHEDPEVKFNWYVDGVEVHNAKTKPREEQYNSTYRVVSVLTVLHQDWLNGKEYKCKVSNKALPAPIEKTISKAKGQPREPQVCTLPPSRDELTENQVSLTCLVKGFYPSDIAVEWESNGQPENNYKTTPPVLDSDGSFFLYSWLTVDKSRWQQGNVFSCSVMHEALHNHYTQKSLSLSPG light: DIQMTQSPSSVSASVGDRVTITCRASQGISSWLAWYQQKPGKAPKLLIYAASSLQSGVPSRFSGSGSGTDFTLTISSLQPEDFATYYCQQGVSFPRTFGGGTKVEIKRTVAAPSVFIFPPSDEQLKSGTASVVCLLNNFYPREAKVQWKVDNALQSGNSQESVTEQDSKDSTYSLSSTLTLSKADYEKHKVYACEVTHQGLSSPVTKSFNRGEC | 
3 | no binding (tested: 1600 nM) | 520 | 0.12 | 320000 | 570 | 0.14 | 320000 | 280 | 0.072 | 260000 |  |  | AB0621 F3' CEACAM5 TriNKET (bispecific antibody, human IgG1, kappa) DIVMTQSPDSLAVSLGERATINCKSSHSLLYGNFQNNYLAWYQQKPGQPPKLLIYWASTRESGVPDRFSGSGSGTDFTLTISSLQAEDVAVYYCQQYYSYPYTFGCGTKLEIKGGGGSGGGGSGGGGSGGGGSQVQLVQSGAEVKKPGASVKVSCKASGYTFTAYTIHWVRQAPGQCLEWMGYINPSSGYTEYNQKFKDRTTLTADTSISTAYMELSRLRSDDTAVYYCTREGGLLWFDYWGQGTLVTVSSGSDKTHTCPPCPAPELLGGPSVFLFPPKPKDTLMISRTPEVTCVVVDVSHEDPEVKFNWYVDGVEVHNAKTKPREEQYNSTYRVVSVLTVLHQDWLNGKEYKCKVSNKALPAPIEKTISKAKGQPREPRVYTLPPCRDELTKNQVSLTCLVKGFYPSDIAVEWESNGQPENNYKTTPPVLVSDGSFTLYSKLTVDKSRWQQGNVFSCSVMHEALHNHYTQKSLSLSPG heavy: EVQLVESGGGLVKPGGSLRLSCAASGFTFSSYSMNWVRQAPGKGLEWVSSISSSSSYIYYADSVKGRFTISRDNAKNSLYLQMNSLRAEDTAVYYCARGAPIGAAAGWFDPWGQGTLVTVSSASTKGPSVFPLAPSSKSTSGGTAALGCLVKDYFPEPVTVSWNSGALTSGVHTFPAVLQSSGLYSLSSVVTVPSSSLGTQTYICNVNHKPSNTKVDKKVEPKSCDKTHTCPPCPAPELLGGPSVFLFPPKPKDTLMISRTPEVTCVVVDVSHEDPEVKFNWYVDGVEVHNAKTKPREEQYNSTYRVVSVLTVLHQDWLNGKEYKCKVSNKALPAPIEKTISKAKGQPREPQVCTLPPSRDELTENQVSLTCLVKGFYPSDIAVEWESNGQPENNYKTTPPVLDSDGSFFLYSWLTVDKSRWQQGNVFSCSVMHEALHNHYTQKSLSLSPG light: DIQMTQSPSSVSASVGDRVTITCRASQGISSWLAWYQQKPGKAPKLLIYAASSLQSGVPSRFSGSGSGTDFTLTISSLQPEDFATYYCQQGVSFPRTFGGGTKVEIKRTVAAPSVFIFPPSDEQLKSGTASVVCLLNNFYPREAKVQWKVDNALQSGNSQESVTEQDSKDSTYSLSSTLTLSKADYEKHKVYACEVTHQGLSSPVTKSFNRGEC | no binding (tested: up to 600 and 1200 nM)
